Assays:
[1] = BIAcore binding of proteins to heparin immobilised on a biosensor chip; settings: IL-4 WT and mutants binding to heparin
Description: This technology uses the optical phenomenon of surface plasmon resonance to monitor physical interactions between molecules. Passing the protein solution over a sensor surface to which the ligand is coupled monitors the real-time binding of proteins to an immobilized ligand. Detection is achieved by measuring refractive index changes very close to the sensor surface. When the refractive index is altered, the angle at which plasmon resonance occurs changes and this change directly correlates with the amount of protein interacting with the surface. A BIAcore 2000 is conveniently used. It is very sensitive and its microfluidics ensures that only small amounts of material are required.
The HLGAGs are immobilized on the biosensor chip. Intact HLGAGs are biotinylated via amino groups, or reducing termini modified with ammonia by reductive amination, using sulfo-NHS-biotin. Biotinylated HLGAGs are immobilized on streptavidin-coupled sensor chips. Solutions containing proteins of interest are injected over the sensor chip surface, and the binding is measured in real time (Fernig, In: Proteoglycan protocols, Ed. R.V. Iozzo, Humana Press, Totowa, N.J., USA, 2001). […] In all cases binding is specific, as there is little or no interaction with sensor chips lacking heparin with any of the targeted proteins, and binding is inhibited by exogenous heparin. Initial analyzes indicate that the binding of rhIL-5 to heparin has affinity constants of the order from 50-5×10^−9. Because unsubstituted amines are variably present in heparan sulfates from different tissues, an alternative method of biotin labeling is recommended for the heparan sulfate chip. In this case, heparan sulfate is labeled via oxidized cis-diol residues using biotinyl-LC-hydrazine. […]
Binding experiments with these proteins has indicated to which PECAM-1 domains heparin binds. Two binding assays were used: the assay where PECAM-1 is reacted with a BIAcore biosensor chip to which heparin has been immobilised and the second assay is the binding of PECAM-1 to heparan sulfate on the cell surface.
Site directed mutagenesis was performed on IL-4. Basic residues within the proposed heparin binding site were changed to alanine and the proteins expressed using the baculovirus expression system. The one exception was R88 which was changed to valine. Insect cell expressed proteins were purified on an anti-IL-4 affinity column and checked for purity by SDS-PAGE and silver staining. Mutant IL-4 proteins were examined for their ability to bind heparin immobilised on a biosensor chip and binding assessed using a BIAcore 2000.

[2] = tested on: TF1.8 cells; assay: TF1.8 bioassay of IL-4 mutants (support of proliferation); type: cell-based, human; settings: IL-4 wt and mutants, TF1.8 cells
Procedure: TF-1.8 cells have been transfected with the firefly luciferase gene contained in the expression vector, pPGK-puromycin-luciferase (Coombe et al., 1998, Supra). The positive transfectants are cloned to produce a line with good luciferase expression. The proliferation assays are carried out in 96-well microplates suitable for such assays Falcon). The wells are flat bottomed, with white sides and a clear bottom. Cells are washed to remove any cytokine in the growth medium and then resuspended in RPMI/5% w/v FCS. The cells are counted with a Coulter Multisizer (Coulter Electronics, England) and routinely 2.5×10^4 cells are added to microplate wells that contain either no IL-4 (negative control) or various dilutions of IL-4. When the effect of HLGAGs, chondroitin sulfate C, or the heparin fractions of a particular length, or heparin fragments of a particular length and structure is to be measured, the wells also contain various concentrations of these molecules.
The cells proliferate for 48 hours at 37° C. in a humidified atmosphere, after which the luciferase activity is measured by the addition of 50 μl of luciferase substrate buffer (50 mm Tris-HCl, pH 7.8, 15 mM MgSO4, 33.3 mM DTT, 0.1 mM EDTA, 0.5 mM Na-luciferin, 0.5 mM ATP, 0.25 mM lithium Co A and 0.5% v/v Triton X-100). Immediately after the addition of the luciferase buffer the plate is assayed for luciferase activity. Light emissions are detected on a Victor 1420 Multilabel counter (Wallac, Turku, Finland).
IL-4 mutants were compared with WT for their ability to support the proliferation of TF1.8 cells. Titration curves were performed for each of the mutants and the concentration needed to support 50% of cell growth was determined.

B1: K21A: IL-4 mutant, baculovirus expressed (protein)
chain: HKCDITLQEIIKTLNSLTEQATLCTELTVTDIFAASKNTTEKETFCRAATVLRQFYSHHEKDTRCLGATAQQFHRHKQLIRFLKRLDRNLWGLAGLNSCPVKEANQSTLENFLERLKTIMREKYSKCSS
B1 showed a ka ([1]; in M-1s-1 (unit assumed)) of 4.86E+04, a kd ([1]; in s-1 (unit assumed)) of 2.53E−03 and a Kd ([1]; read-out: KD) of 52.1 nM. The “Conc needed for 50% growth, average” value [2] was 1.36 ng/mL.

Source: patent US8209131B2, “Therapeutic heparins and their binding to interleukins 4 and 5 and PECAM-1” (Curtin University of Technology, priority 2004, dated 2012)
